Experimental data taken from publication PMC10516654, “Structural and functional characterization of MrpR, the master repressor of the Bacillus subtilis prophage SPβ”.

What was measured:
Assay in all cases: ITC; ITC: 20 mM HEPES-Na pH 7.5, 200 mM NaCl, 20 mM KCl, 25 C, 20 uM DNA in cell, protein in syringe, one set of sites; EMSA: same buffer plus 50 ug/ml herring sperm DNA, 50 nM DNA, RT 15 min, 6% native PAGE 0.5x TBE
Details in all cases: protein: recombinant; tags: C-terminal His6; blunt
MrpR G136E = molecular target: T1, MrpR G136E (Bacillus subtilis prophage SPβ c2, UniProt O34558 1-325, G136E)
T1 sequence: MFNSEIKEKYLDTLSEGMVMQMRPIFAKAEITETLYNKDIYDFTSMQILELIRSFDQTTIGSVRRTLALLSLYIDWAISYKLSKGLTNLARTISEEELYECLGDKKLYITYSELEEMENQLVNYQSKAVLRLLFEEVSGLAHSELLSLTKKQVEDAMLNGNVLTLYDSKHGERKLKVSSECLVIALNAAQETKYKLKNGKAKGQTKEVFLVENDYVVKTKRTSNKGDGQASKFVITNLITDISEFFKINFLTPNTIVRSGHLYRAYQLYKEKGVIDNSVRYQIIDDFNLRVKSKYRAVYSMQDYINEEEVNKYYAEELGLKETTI

MrpR K169A = molecular target: T2, MrpR K169A (Bacillus subtilis prophage SPβ, UniProt O34558 1-325, K169A)
T2 sequence: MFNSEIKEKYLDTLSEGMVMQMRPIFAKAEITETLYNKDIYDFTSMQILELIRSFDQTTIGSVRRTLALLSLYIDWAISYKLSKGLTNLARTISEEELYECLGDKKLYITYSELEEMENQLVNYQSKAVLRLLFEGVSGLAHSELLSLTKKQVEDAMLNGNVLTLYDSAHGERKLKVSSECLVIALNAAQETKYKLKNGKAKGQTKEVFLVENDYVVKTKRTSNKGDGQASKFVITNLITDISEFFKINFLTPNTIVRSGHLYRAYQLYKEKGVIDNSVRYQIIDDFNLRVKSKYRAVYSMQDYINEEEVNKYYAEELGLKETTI

MrpR Y304F = molecular target: T3, MrpR Y304F (Bacillus subtilis prophage SPβ, UniProt O34558 1-325, Y304F)
T3 sequence: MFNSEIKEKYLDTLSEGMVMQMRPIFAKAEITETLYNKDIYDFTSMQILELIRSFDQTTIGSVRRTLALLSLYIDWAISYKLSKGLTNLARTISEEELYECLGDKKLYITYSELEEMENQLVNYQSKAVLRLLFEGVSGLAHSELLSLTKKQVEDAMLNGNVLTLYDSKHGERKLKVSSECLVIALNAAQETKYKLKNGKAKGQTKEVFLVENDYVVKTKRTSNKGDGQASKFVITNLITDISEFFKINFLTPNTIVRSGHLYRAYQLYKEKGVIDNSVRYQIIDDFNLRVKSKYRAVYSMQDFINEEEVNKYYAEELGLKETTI

B1: aimR promoter ITC duplex (LC292/LC293) (dsDNA)
DNA 1: GAATTTTAAAGAGATTACAAATACAAAAAATATGTATAAAATAATTGACTCGTAATG
DNA 2: CATTACGAGTCAATTATTTTATACATATTTTTTGTATTTGTAATCTCTTTAAAATTC
B1 showed a Kd (MrpR G136E) of 1.69 ± 0.69 µM, a Kd (MrpR K169A) of 0.346 ± 0.15 µM and a Kd (MrpR Y304F) of 1.34 ± 0.5 µM.
